# Biological target: the molecule itself
# Test: SEC-MALS
protein,measurement,value
HsaD from Mycobacterium tuberculosis H37Rv (enzyme) MTATEELTFESTSRFAEVDVDGPLKLHYHEAGVGNDQTVVLLHGGGPGAASWTNFSRNIAVLARHFHVLAVDQPGYGHSDKRAEHGQFNRYAAMALKGLFDQLGLGRVPLVGNSLGGGTAVRFALDYPARAGRLVLMGPGGLSINLFAPDPTEGVKRLSKFSVAPTRENLEAFLRVMVYDKNLITPELVDQRFALASTPESLTATRAMGKSFAGADFEAGMMWREVYRLRQPVLLIWGREDRVNPLDGALVALKTIPRAQLHVFGQCGHWVQVEKFDEFNKLTIEFLGGGR,stoichiometry N,4
